Laboratory results as given in patent US20220332804A1 (CSL INNOVATION, published 2022).

Experiments:
Experiment in all cases: SPR, mAb captured, C2 mutant analyte;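 also: Anti-C2 mAbs captured on goat anti-human IgG Biacore CM5 chips, alanine or serine C2 surface mutants flowed over at 37 °C, double-referenced sensorgrams fitted to a 1:1 binding model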
human C2 L279A = biological target: T1, human C2 L279A (human, UniProt P06681 21-752)
T1 sequence: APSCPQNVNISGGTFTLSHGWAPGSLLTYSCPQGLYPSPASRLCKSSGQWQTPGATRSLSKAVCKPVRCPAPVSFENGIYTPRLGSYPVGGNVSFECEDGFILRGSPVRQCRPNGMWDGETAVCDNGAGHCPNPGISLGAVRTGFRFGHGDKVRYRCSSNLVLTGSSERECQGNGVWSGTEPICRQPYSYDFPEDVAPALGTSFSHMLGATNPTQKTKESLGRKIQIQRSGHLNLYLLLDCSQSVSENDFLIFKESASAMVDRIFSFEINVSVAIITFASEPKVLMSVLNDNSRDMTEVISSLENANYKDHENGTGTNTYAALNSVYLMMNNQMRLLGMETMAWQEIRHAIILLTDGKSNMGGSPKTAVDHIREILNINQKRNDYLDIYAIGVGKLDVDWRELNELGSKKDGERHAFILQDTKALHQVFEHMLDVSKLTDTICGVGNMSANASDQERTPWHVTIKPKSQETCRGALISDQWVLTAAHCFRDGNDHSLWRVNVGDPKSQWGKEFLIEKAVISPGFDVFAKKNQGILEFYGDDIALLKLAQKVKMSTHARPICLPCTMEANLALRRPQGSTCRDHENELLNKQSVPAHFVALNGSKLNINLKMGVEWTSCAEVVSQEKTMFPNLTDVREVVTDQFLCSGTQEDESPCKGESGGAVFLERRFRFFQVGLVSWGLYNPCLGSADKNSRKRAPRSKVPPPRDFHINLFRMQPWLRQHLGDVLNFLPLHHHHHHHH

human C2 G432A = biological target: T2, human C2 G432A (human, UniProt P06681 21-752)
T2 sequence: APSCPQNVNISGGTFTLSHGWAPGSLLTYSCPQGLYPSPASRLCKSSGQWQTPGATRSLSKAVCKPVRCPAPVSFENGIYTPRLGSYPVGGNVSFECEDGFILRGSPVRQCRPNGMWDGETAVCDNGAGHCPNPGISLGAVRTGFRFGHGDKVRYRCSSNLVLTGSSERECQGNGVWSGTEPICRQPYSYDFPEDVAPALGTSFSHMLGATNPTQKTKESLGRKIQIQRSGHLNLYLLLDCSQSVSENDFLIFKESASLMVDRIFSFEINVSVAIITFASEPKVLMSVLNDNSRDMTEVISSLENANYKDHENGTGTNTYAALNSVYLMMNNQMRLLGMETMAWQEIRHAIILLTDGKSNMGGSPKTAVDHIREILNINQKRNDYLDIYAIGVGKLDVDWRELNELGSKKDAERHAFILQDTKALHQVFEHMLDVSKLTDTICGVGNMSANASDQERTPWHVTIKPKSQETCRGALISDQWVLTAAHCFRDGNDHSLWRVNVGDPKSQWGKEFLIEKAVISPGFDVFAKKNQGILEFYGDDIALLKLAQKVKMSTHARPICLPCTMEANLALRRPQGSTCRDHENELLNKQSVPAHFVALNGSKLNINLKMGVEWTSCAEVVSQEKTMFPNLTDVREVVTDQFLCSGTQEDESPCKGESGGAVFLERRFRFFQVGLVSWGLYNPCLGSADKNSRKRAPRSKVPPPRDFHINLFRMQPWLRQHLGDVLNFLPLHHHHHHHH

human C2 F437A = biological target: T3, human C2 F437A (human, UniProt P06681 21-752)
T3 sequence: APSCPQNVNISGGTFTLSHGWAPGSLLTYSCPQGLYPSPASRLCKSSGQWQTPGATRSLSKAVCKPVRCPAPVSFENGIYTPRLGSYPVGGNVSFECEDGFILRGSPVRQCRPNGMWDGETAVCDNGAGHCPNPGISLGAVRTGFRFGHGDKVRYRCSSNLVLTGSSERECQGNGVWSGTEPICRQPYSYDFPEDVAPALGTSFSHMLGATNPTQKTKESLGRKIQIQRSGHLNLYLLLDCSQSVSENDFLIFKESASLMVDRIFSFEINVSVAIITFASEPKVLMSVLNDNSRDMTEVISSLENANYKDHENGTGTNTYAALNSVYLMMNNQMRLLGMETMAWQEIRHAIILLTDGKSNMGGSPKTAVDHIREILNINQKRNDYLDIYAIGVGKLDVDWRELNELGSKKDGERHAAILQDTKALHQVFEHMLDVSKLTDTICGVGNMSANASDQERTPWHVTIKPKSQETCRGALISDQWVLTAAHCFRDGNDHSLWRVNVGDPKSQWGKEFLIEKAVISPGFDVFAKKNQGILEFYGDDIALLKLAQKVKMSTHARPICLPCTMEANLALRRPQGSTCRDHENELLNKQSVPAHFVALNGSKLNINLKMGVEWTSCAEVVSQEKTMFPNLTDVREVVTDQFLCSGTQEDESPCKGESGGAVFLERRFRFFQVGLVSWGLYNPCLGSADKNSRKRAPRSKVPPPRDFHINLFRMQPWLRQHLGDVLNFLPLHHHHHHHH

human C2 N467A = biological target: T4, human C2 N467A (human, UniProt P06681 21-752)
T4 sequence: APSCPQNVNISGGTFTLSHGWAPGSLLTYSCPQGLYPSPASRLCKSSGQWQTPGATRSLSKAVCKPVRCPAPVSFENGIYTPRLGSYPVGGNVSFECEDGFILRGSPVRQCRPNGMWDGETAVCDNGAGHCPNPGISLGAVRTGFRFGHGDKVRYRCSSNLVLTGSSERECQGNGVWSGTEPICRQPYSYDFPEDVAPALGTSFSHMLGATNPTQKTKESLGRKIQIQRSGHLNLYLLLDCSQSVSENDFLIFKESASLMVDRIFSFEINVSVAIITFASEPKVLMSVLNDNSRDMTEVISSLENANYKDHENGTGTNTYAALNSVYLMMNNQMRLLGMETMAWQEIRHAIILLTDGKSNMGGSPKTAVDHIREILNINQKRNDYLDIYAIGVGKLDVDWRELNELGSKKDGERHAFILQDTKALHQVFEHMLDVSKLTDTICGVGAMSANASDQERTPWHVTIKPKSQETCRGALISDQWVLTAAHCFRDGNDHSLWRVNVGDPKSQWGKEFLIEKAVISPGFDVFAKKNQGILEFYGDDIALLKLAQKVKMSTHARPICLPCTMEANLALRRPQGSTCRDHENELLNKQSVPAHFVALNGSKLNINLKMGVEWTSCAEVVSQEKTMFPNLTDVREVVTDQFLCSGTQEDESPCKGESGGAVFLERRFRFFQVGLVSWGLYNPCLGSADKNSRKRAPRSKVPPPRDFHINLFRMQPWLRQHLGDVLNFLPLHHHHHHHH

B1: RF16-214 (antibody, V domains shown)
VH: EVQLLESGGGLVQPGGSLRLSCAASGFTFSWYQMMWVRQAPGKGLEWVSRIYPSGGGTAYADSVKGRFTISRDNSKNTLYLQMNSLRAEDTAVYYCARDAGYGDNWGQGTLVTVSS
VL: QSALTQPPSVSVSPGQTASITCSGDKLGEKYASWYQQKAGQSPVMVIYQDRKRPSGIPERFSGSNSGNTATLTISGTQAMDEADYYCQAWDTRAVVFGGGTKLTVLG
B1 gave a Kd (human C2 L279A) of 240 nM, a Kd (human C2 G432A) of 26 nM and a Kd (human C2 F437A) of 381 nM. The Kd (human C2 N467A) was 77.2 nM.
